The target in test [1] is T1, mouse IgG1 Fc-mature human GDF15 fusion protein (mFc-rhGDF15) (mouse; human).
T1 construct: Made in CHOK1SV cells, purified by Protein A and size exclusion; also called mouse Fc fused to human GDF15
T1 chain: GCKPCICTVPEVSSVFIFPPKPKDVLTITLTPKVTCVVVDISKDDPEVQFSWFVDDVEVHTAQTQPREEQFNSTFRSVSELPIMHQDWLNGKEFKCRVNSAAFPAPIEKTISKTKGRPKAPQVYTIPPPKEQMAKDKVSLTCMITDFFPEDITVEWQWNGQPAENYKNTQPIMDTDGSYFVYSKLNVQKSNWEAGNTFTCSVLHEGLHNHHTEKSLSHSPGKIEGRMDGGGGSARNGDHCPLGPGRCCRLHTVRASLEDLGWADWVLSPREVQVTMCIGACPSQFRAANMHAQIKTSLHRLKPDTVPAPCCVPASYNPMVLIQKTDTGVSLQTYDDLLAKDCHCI
Nature of the test: SPR Biacore T100, 37 C, purified antibody captured by anti-human IgG Fc, antigen in solution. Here is the method: (§1) Goat anti-human IgGs (Fc fragment specific, Jackson ImmunoResearch, West Grove, Pa.) were immobilized on carboxymethylated dextran CM4 sensor chips by amine coupling, according to a standard protocol. Analyses were performed at 37° C. using PBS containing 0.05% surfactant P20 as running buffer. The antibodies were captured in individual flow cells at a flow rate of 10 μL/minute. Injection time was varied for each antibody to yield an Rmax between 30 and 60 RU. […] The dissociation phase was monitored for up to 1500 seconds. The surface was then regenerated with two 60-second injections of 10 mM Glycine-HCl, pH 2.25, at a flow rate of 30 μL/minute.
(§2) Kinetic parameters were determined using the kinetic function of the BIAevaluation software (GE Healthcare) with double reference subtraction. Kinetic parameters for each antibody, kₐ (association rate constant), kd (dissociation rate constant), and KD (equilibrium dissociation constant) were determined Kinetic values of purified monoclonal antibodies on mFc-rhGDF15, mature human GDF15, rFc-rmGDF15, and mFc-rcGDF15 are summarized in Table 27.

For test [2], the target named is T2, rabbit IgG1 Fc-mature mouse GDF15 fusion protein (rFc-rmGDF15) (rabbit; mouse).
T2 construct: also called rabbit Fc mature recombinant mouse GDF15
T2 chain: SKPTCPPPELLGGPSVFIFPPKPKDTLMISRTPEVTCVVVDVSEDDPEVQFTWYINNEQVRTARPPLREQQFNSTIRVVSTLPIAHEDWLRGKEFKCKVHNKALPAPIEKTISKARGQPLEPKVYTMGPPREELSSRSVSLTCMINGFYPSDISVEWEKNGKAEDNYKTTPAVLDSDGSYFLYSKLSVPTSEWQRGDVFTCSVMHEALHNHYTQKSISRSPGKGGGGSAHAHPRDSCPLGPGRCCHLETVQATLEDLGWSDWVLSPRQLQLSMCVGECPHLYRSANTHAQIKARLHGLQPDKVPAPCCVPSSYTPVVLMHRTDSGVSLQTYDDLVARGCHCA
The test is described as above. Here is the method:
as §1, §2

In test [3] the target is T3, mouse Fc mature recombinant cynomolgus monkey GDF15 (mFc-rcGDF15) (mouse; cynomolgus monkey, UniProt G7PWZ3 193-308).
T3 construct: mature; not shown: mouse Fc and any linker
T3 sequence (looked up): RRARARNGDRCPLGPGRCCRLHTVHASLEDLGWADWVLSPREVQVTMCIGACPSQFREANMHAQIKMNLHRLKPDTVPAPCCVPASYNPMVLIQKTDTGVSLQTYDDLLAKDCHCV
Described as above. The procedure:
as §1, §2

The target in test [4] is T4, cleaved-rhGDF15 (human, UniProt Q99988 197-308).
T4 sequence: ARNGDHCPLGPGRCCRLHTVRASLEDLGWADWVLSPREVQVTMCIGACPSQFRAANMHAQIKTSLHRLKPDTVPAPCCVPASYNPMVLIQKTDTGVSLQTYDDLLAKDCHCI
Described as above. Here is the method: as §1, §2

In test [5] the target is T1, mouse IgG1 Fc-mature human GDF15 fusion …. The test is described as above. The procedure:
as §1, with “1200” for “1500”
Kinetic parameters were determined using the kinetic function of the BIAevaluation software (GE Healthcare) with double reference subtraction.

Test [6] has the same target. Put plainly: BLI Octet QK, 30 C, antibody from supernatant on anti-human Fc sensor, 400 nM mFc-rhGDF15. The procedure:
The Octet analysis was performed at 30° C. using 1× Kinetics Buffer (ForteBio, Inc.) as assay buffer. Anti-human IgG Fc Capture (AHC) biosensors (ForteBio, Inc.) were used to capture human antibodies onto the sensors. Sensors were saturated in assay buffer for at 300 seconds before the assay. […] Baseline was established by dipping the sensors into 1× assay buffer for 200 seconds. Next, association was monitored for 220 seconds in 400 nM mFc-rhGDF15 protein, and dissociation was followed for 600 seconds in buffer alone.
Kinetic parameters of the antibody, kₐ, kd, and KD were determined.
On the technique in general: In BLI a coated tip is dipped into the sample, and binding shifts an interference pattern.

Changes are numbered by the printed parent chain.

B1: Hu01G06-138 (antibody, human IgG1, kappa)
heavy: not shown
light: DIQMTQSPSSLSASVGDRVTITCRTSENLHNYLAWYQQKPGKAPKLLIYDAKTLADGVPSRFSGSGSGTDYTLTISSLQPEDFATYYCQHFWSSPYTFGQGTKLEIKRTVAAPSVFIFPPSDEQLKSGTASVVCLLNNFYPREAKVQWKVDNALQSGNSQESVTEQDSKDSTYSLSSTLTLSKADYEKHKVYACEVTHQGLSSPVTKSFNRGEC
Broadly, the Kd is the equilibrium constant for the complex coming apart. For orientation: koff means the rate constant with which the complex falls apart. What is called kon is the rate constant with which the complex forms. Consider B1, for which the equilibrium dissociation constant (Kd) in test [1] amounted to 0.011 nM; in test [2], 0.044 nM; in test [3], 0.025 nM; in test [4], 0.0045 nM. The koff in test [1] stood at 4.1e-05 s⁻¹; in test [2], 0.0008 s⁻¹; in test [3] it was 5.3e-05 s⁻¹; in test [4], 2.5e-05 s⁻¹. For the same molecule, the kon in test [1] was determined as 5.9e+06 M⁻¹ s⁻¹; in test [2], 1.9e+07 M⁻¹ s⁻¹; in test [3] it was 2.3e+06 M⁻¹ s⁻¹; in test [4], 7.9e+06 M⁻¹ s⁻¹.

B2: Hu01G06-146 (antibody, human IgG1, kappa)
heavy: not shown
light: B1 light with A43S, S94D
Regarding B2, the dissociation constant (Kd) in test [1] is 0.0093 nM; in test [2], 0.063 nM; in test [3], 0.008 nM; in test [4], 0.011 nM. For the same molecule, the koff in test [1] was 2.6e-05 s⁻¹; in test [2], 0.00072 s⁻¹; in test [3], 1.5e-05 s⁻¹; in test [4], 5.2e-05 s⁻¹. Further, the kon in test [1] came to 5.3e+06 M⁻¹ s⁻¹; in test [2] it was 1.1e+07 M⁻¹ s⁻¹; in test [3], 2e+06 M⁻¹ s⁻¹; in test [4] it was 6.5e+06 M⁻¹ s⁻¹.

B3: Hu01G06-127 (antibody, human IgG1, kappa)
heavy: not shown
light: B1 light with A43S, S94D
For the molecule B3, the Kd in test [1] worked out at 0.018 nM; in test [2], 0.051 nM; in test [3] it was 0.0095 nM; in test [4], 0.01 nM. In addition, the koff in test [1] stood at 4.2e-05 s⁻¹; in test [2] it was 0.0021 s⁻¹; in test [3], 1.6e-05 s⁻¹; in test [4] it was 3.6e-05 s⁻¹. The kon in test [1] turned out to be 4.6e+06 M⁻¹ s⁻¹; in test [2] it was 3.9e+07 M⁻¹ s⁻¹; in test [3] it was 1.8e+06 M⁻¹ s⁻¹; in test [4], 6.1e+06 M⁻¹ s⁻¹.

B4: Hu01G06-122 (antibody, human IgG1, kappa)
heavy: not shown
light: B1 light
For B4, the Kd in test [1] turned out to be 0.0065 nM; in test [2], 0.063 nM; in test [3] it was 0.01 nM; in test [4] it was 0.0079 nM. Further, the off-rate constant (koff) was determined as 2.1e-05 s⁻¹ in test [1], 0.0014 s⁻¹ in test [2], 2.4e-05 s⁻¹ in test [3] and 3.4e-05 s⁻¹ in test [4]. The on-rate (kon) in test [1] is 5.9e+06 M⁻¹ s⁻¹; in test [2] it was 2.2e+07 M⁻¹ s⁻¹; in test [3], 2.3e+06 M⁻¹ s⁻¹; in test [4], 7.9e+06 M⁻¹ s⁻¹.

B5: Hu01G06-135 (antibody, human IgG1, kappa)
heavy: not shown
light: B1 light
Take B5: the dissociation constant Kd in test [1] worked out at 0.014 nM; in test [2] it was 0.055 nM; in test [3], 0.038 nM; in test [4], 0.01 nM. In addition, the koff in test [1] came to 4.4e-05 s⁻¹; in test [2], 0.0019 s⁻¹; in test [3], 7.9e-05 s⁻¹; in test [4], 6.2e-05 s⁻¹. Further, the kon in test [1] stood at 5.3e+06 M⁻¹ s⁻¹; in test [2], 3.7e+07 M⁻¹ s⁻¹; in test [3] it was 2.2e+06 M⁻¹ s⁻¹; in test [4] it was 7.3e+06 M⁻¹ s⁻¹.

B6: Hu14F11-1 (antibody, human IgG1, kappa)
heavy: not shown
light: DIVMTQSQKFMSTSVGDRVSVTCKASQNVGTNVAWYQQKPGQSPKALIYSPSYRYSGVPDRFTGSGSGTDFTLTISNVQSEDLAEYFCQQYNSYPHTFGGGTKLEMKRTVAAPSVFIFPPSDEQLKSGTASVVCLLNNFYPREAKVQWKVDNALQSGNSQESVTEQDSKDSTYSLSSTLTLSKADYEKHKVYACEVTHQGLSSPVTKSFNRGEC
notes: Mouse variable regions, human IgG1 and kappa constant regions; also called Chimeric 14F11
B6: in test [5], binding was put at a Kd of 0.16 nM, the koff was found to be 0.00046 s⁻¹ and the association rate constant (kon) worked out at 3e+06 M⁻¹ s⁻¹. In test [6], this molecule yielded a dissociation constant Kd of 0.032 nM, a koff of 1.9e-05 s⁻¹ and an association rate constant (kon) of 630000 M⁻¹ s⁻¹.

B7: Hu14F11-24 (antibody, human IgG1, kappa)
heavy: not shown
light: B6 light with Y36F, P51A, T72I, S93N, H96L, G100A, M106L
notes: Chimeric 14F11 heavy chain with chimeric 06C11 light chain, human IgG1 kappa; tested in supernatant; also called chimeric light 06C11 with chimeric heavy 14F11
For B7, in test [6], the affinity, expressed as Kd, was 0.31 nM; the dissociation rate constant (koff) was determined as 0.00022 s⁻¹; the kon turned out to be 710000 M⁻¹ s⁻¹.

B8: Hu14F11-23 (antibody, human IgG1, kappa)
heavy: not shown
light: B6 light
notes: Chimeric 06C11 heavy chain with chimeric 14F11 light chain, human IgG1 kappa; tested in supernatant; also called chimeric light 14F11 with chimeric heavy 06C11
With B8, in test [6], the equilibrium dissociation constant (Kd) turned out to be 0.18 nM, the off-rate constant (koff) was 6.2e-05 s⁻¹ and the kon was 340000 M⁻¹ s⁻¹.

The record behind these values is patent publication US20160083465A1 (AVEO PHARMACEUTICALS, published 2016).
